Test [1] deals with T1, N-terminally truncated Gα13(Q226L), GDP-bound (mouse, UniProt P27601 41-377, Q226L).
T1 sequence (looked up): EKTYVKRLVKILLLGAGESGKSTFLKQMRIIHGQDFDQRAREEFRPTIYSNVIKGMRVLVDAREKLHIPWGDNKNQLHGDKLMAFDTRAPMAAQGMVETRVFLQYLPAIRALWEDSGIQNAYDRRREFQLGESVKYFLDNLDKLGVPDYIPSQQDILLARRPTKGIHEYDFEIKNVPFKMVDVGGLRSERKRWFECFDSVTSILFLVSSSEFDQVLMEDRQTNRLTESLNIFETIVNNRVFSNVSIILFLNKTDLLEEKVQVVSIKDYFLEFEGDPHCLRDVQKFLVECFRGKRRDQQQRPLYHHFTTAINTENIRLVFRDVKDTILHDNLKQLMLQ
In words: crystal structure.

For a further test, the target named is T2, Gα13 (Mus musculus, UniProt P27601).
T2 chain: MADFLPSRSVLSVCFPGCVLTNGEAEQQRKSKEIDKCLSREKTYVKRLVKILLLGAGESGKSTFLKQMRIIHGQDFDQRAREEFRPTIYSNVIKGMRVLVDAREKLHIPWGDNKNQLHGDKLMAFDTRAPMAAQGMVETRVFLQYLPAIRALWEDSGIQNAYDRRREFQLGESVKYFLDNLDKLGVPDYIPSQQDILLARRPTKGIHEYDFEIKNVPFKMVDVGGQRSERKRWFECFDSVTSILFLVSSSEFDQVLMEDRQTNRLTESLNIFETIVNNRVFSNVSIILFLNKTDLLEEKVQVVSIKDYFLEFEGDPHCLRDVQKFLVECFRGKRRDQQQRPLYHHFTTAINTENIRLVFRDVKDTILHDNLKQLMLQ
The test can be described thus: ITC. Background: In ITC the heat of successive injections is recorded.

As a reminder, the Kd is the equilibrium constant for the complex coming apart. The low end stands for tighter binding, the high end for weaker binding.

B1: rgRGS domain of PDZRhoGEF/GTRAP48 (residues 307–508) (domain or fragment, rat, UniProt Q9ES67 307-508, looked up)
chain: LIIGPEEDYDPGYFNNESDIIFQDLEKLKSHPAYLVVFLRYILSQADPGPLLFYLCSEVYQQTNPKDSRSLGKDIWNIFLEKNAPLRVKIPEMLQAEIDLRLRNNEDPRNVLCEAQEAVMLEIQEQINDYRSKRTLGLGSLYGENDLLGLDGDPLRERQMAEKQLAALGDILSKYEEDRSAPMDFAVNTFMSHAGIRLRESR
Consider B1, for which the binding result in test [1] is recorded as “binds”.

B2: PDZRhoGEF rgRGS (protein)
chain: ESDIIFQDLEKLKSRPAHLGVFLRYIFSQADPSPLLFYLCAEVYQQASPKDSRSLGKDIWNIFLEKNAPLRVKIPEMLQAEIDSRLRNSEDARGVLCEAQEAAMPEIQEQIHDYRTKRTLGLGSLYGENDLLDLDGDPLRERQVAEKQLAALGDILSKYEEDRSAPMDFALNTYMSHAGIR
modifications: GDP·AlF-bound Gα13
Take B2: the dissociation constant (Kd) in the test with Gα13 was roughly 500 nM.

B3: PDZRhoGEF rgRGS (protein)
chain: B2 chain
modifications: GTPγS-bound Gα13
In turn, B3 yielded a Kd with Gα13 of roughly 300 nM.

The values above are taken from paper PMC2586972 (Structure (London, England : 1993), 2008).
